T1: proteolytic activity of ciliary dyskinesia patient sputum (Homo sapiens, UniProt P08246)
T1 construct: Sputa from patients with cystic fibrosis, COPD or ciliary diskenisia above 18 years old were collected; from tissue; host or cells: expectorated sputum of patients with cystic fibrosis, COPD or ciliary dyskinesia
T1 sequence (P08246 30-267): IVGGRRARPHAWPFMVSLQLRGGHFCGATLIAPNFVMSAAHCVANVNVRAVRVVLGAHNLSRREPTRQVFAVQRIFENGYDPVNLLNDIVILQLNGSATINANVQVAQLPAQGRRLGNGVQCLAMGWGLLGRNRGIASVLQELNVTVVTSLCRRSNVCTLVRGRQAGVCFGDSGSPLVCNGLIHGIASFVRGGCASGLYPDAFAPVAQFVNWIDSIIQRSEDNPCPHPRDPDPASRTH

T2: hNE (Homo sapiens, UniProt P08246)
T2 construct: purchased Elastin Products Company (EPC)
T2 sequence (P08246 30-247): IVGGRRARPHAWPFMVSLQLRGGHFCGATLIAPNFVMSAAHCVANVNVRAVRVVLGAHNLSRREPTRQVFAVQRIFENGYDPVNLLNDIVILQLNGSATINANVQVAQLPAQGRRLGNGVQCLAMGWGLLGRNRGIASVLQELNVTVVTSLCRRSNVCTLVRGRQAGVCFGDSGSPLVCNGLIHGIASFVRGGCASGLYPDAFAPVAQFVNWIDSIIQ


Tests used:
[1] = biological target: T1, proteolytic activity of ciliary dyskinesia patient sputum; assay: Sputum proteolytic activity inhibition, ciliary dyskinesia sputum; assay type: biochemical; settings: 10 mg sputum
Protocol: 2.2.2 Evaluation of the proteolytic activity inhibition in CF, COPD and ciliary diskenisia sputa. […] Sputa collection procedures were evaluated by the local ethic committee (comité d'Ethique Hospitalo-Facultaire des Cliniques universitaires Saint-Luc) and approved under the Belgian registration number B4032021000071.
Sputum proteolytic activity was assessed by following with a spectrophotometer the absorbance at 410 nm of suc-Ala-Ala-Pro-Val-pNA degradation, the chromogenic hNE substrate. Sputa were classified as mucoid, muco-purulent or purulent (Serisier et al., 2009, Respir Res, 10 (1): 63. doi: 10.1186/1465-9921-10-6). According to the experiment, 10 to 20 mg of sputum were weighted in a 96-well plate. ISVDs were then added to the sputum samples and pre-incubated at 37° C. during different periods of time. The hNE substrate was diluted to a concentration of 1 mM in a tris buffer (0.1M tris, 0.5M NaCl, 0.01% Sodium azide (NaN3), pH 7.5) and 50 μl of this solution were added to the wells. The substrate degradation was followed during 50 min. […] Slopes were then calculated from the regression line drawn from the absorbance measurements and were expressed as a percentage of the sputum proteolytic activity without ISVDs.

[2] = biological target: T2, hNE; assay: hNE inhibitory capacity after physical stress; assay type: biochemical; settings: hNE: Nb molar ratio 1:1, compared to unexposed ISVD
Protocol: 2.2.1 Evaluation of the proteolytic activity inhibition on purified hNE. hNE activity was assessed by following the degradation of a chromogenic hNE substrate, N-succinyl-alanine-alanine-proline-valine-p-nitroanilide (suc-Ala-Ala-Pro-Val-pNA, Elastin products, Owensville, Missouri, USA), measuring the absorbance at 410 nm with a spectrophotometer (Spectramax ID5, Molecular Devices, San Jose, USA). The substrate was diluted to a concentration of 1.5 mM in a tris buffer (0.1M tris, 0.5M NaCl, 0.01% NaN3, pH 7.5) and 200 μl of this solution were added to the wells of a 96-well plate and heated at 37° C. Purified hNE (Elastin products) was reconstituted on ice in a 0.05M Sodium acetate (NaOAc), 0.1M NaCl buffer at pH5 to a concentration of 0.1 mg/ml. 10 μl of this hNE solution were added per well and the substrate degradation was followed during 20 min to verify the hNE activity in the wells. ISVDswere then added to the wells at the desired hNE: ISVD ratio, and the substrate degradation was then followed during 50 min. Slopes were calculated from the regression line drawn from the absorbance measurements and were expressed as a percentage of the hNE activity without ISVDs. […]

[3] = Physical stress (nebulization, agitation, freeze/thaw): concentration by A280 nm before/after centrifugation; assay type: physicochemical; settings: for Initial concentration percentage after centrifugation: 10 000 g 10 min
Protocol: A 0.25 mg/ml solution of NbE201, NbE201-PEG10 or NbE201-PEG40 was prepared and divided in order to apply the following conditions: control, 1 or 4 h of agitation with a magnetic bar, nebulization, 5 or 10 freeze/thaw cycles.
2.3.1 Stability towards agitation. 100 μl of a 0.25 mg/ml ISVDs solution were agitated in a 1 ml glass vial with a 2×5 mm magnetic bar (VWR, Radnor, USA) at 200 rpm during 1 or 4 hours.
2.3.2 Stability towards Nebulization. 300 μl of a 0.25 mg/ml ISVDs solution were nebulized with a MeSH nebulizer (InnoSpire Go, Phillips, Amsterdam, The Netherlands).
2.3.3 Stability towards freezing/thawing. 100 μl of a 0.25 mg/ml ISVDs solution underwent 5 or 10 freeze/thaw (F/T) cycles. Freezing was performed in a −20° C. freezer and thawing was performed at RT.
2.3.4 Concentration measurements. Concentrations and UV spectra were measured by spectrophotometry (NanoDrop 2000/2000c spectrophotometer, ThermoFisher). Concentrations were determined based on the absorbance at 280 nm. NbE201 and NbE201-Cter mass extinction coefficients applied to the measurements were 1.888 and 1.716 (mg/mL)^−1 cm^−1 respectively. Regarding the ISVDs exposed to physical stresses, the concentration was read before and after centrifugation at 10 000 g at 4° C. for 10 min.

[4] = Spray-dried powder: concentration before/after centrifugation; assay type: physicochemical; settings: spray-dried powder solubilized and dialysed; 10 000 g ten minutes
Protocol: Dry powders for inhalation were formulated with the NbE201 and the NbE201-PEG40. The spray dryer used was the PROCEPT's modular 4M8-Trix.
The integrity of the ISVD within the spray-dried powders was then evaluated after solubilizing the powders into water followed by a dialysis into phosphate buffer (50 mM, pH7). Protein concentration was measured by reading the absorbance at 280 nm before and after centrifugation at 10 000 g for ten minutes in order to detect the presence of insoluble aggregates.

Molecule | inhibitory capacity in ciliary dyskinesia sputum [1] | loss of hNE inhibitory capacity after nebulization, agitation or F/T cycles [2] | Initial concentration percentage before centrifugation ([3]; Agitation (1 h)) [%] | Initial concentration percentage after centrifugation ([3]; Agitation (1 h)) | Initial concentration percentage before centrifugation ([3]; Agitation (4 h)) | Initial concentration percentage after centrifugation ([3]; Agitation (4 h)) | Initial concentration percentage before centrifugation ([3]; Control) [%] | Initial concentration percentage after centrifugation ([3]; Control) | Initial concentration percentage before centrifugation ([3]; F/T 5x) [%] | Initial concentration percentage after centrifugation ([3]; F/T 5x) | Initial concentration percentage before centrifugation ([3]; F/T 10x) [%] | Initial concentration percentage after centrifugation ([3]; F/T 10x) | Initial concentration percentage before centrifugation ([3]; Nebulization) | Initial concentration percentage after centrifugation ([3]; Nebulization) | concentration after centrifugation as % of concentration before centrifugation [4] [%]
NbE201: anti-hNE ISVD (VHH/nanobody) from immunized lama, amino acid sequence SEQ ID NO: 4 (protein) VHH: QVQLQESGGGLVQAGGSLRLSCVVPGRTISLYRMGWFRQAPGKEREFVAGINWSGDMTDYVDSVKGRFTISRDNAKNTVYLEMNSLKPEDTAIYYCTADPKLLPLADSSYGYWGQGTQVTVSS | No apparent differences in inhibitory capacity | the greatest losses were observed with nebulization and 4 h of agitation | 93 ± 4 | 54 ± 12% (****) | 77 ± 6% (**) | 27 ± 19% (****) | 100 ± 0 | 100 ± 0% ^ | 96 ± 8 | 85 ± 10% (*) | 103 ± 5 | 75 ± 9% (**) | 73% ± 3% (***) | 31 ± 2% (****) | 53±3
NbE201-PEG40: NbE201-Cter conjugated via C-terminal cysteine to branched 40 kDa PEG-maleimide (conjugate) VHH: QVQLQESGGGLVQAGGSLRLSCVVPGRTISLYRMGWFRQAPGKEREFVAGINWSGDMTDYVDSVKGRFTISRDNAKNTVYLEMNSLKPEDTAIYYCTADPKLLPLADSSYGYWGQGTQVTVSSSPSTPPTPSPSTPPC | No apparent differences in inhibitory capacity | did not display any significant loss of inhibitory activity | 99 ± 1 | 98 ± 1% | 98 ± 1% | 99 ± 1% | 100 ± 0 | 99 ± 1% | 97 ± 2 | 99 ± 1% | 97 ± 2 | 97 ± 3% | 88 ± 3% (****) | 88 ± 3% (****) | 97±2

Reference: patent US20260209387A1, “SINGLE-DOMAIN ANTIBODY FOR INHIBITION OF NEUTROPHIL ELASTASE ACTIVITY” (UNIVERSITE DE LIEGE, priority 2023, published 2026)
